# According to patent US7868138B2, “Methods for generating polynucleotides having desired characteristics by iterative selection and recombination” (priority 1994, dated 2011):
# B1: TEM-1: wild-type bacterial TEM-1 betalactamase, gene on a pUC18 derivative (protein, UniProt P62593 24-286, looked up)
# Beta-lactamase TEM: HPETLVKVKDAEDQLGARVGYIELDLNSGKILESFRPEERFPMMSTFKVLLCGAVLSRVDAGQEQLGRRIHYSQNDLVEYSPVTEKHLTDGMTVRELCSAAITMSDNTAANLLLTTIGGPKELTAFLHNMGDHVTRLDRWEPELNEAIPNDERDTTMPAAMATTLRKLLTGELLTLASRQQLIDWMEADKVAGPLLRSALPAGWFIADKSGAGERGSRGIIAALGPDGKPSRIVVIYTTGSQATMDERNRQIAEIGASLIKHW
# Tests used:
# [1] = tested on: CHO cells; test: Fluorescence spectroscopy of CHO cells expressing GFP; assay type: cell-based, chinese hamster; conditions: 2 mM sodium butyrate, 'wt' construct
# Method: The wildtype and the cycle 2 and 3 mutant versions of the GFP gene were transferred into the eukaryotic expression vector Alpha+ (16) as an EcoRI-XbaI fragment. The plasmids were transfected into CHO cells by electroporation of 10^7 cells in 0.8 ml with 40 μg of plasmed at 400V and 250 μF. Transformants were selected using 1 mg/ml G418 for 10-12 days.
# Improvements in autonomous characteristics such as self-folding can be tranferable to different cellular environments. After being selected in bacteria, the ‘cycle 3’ mutant GFP was transferred into the eukaryotic Alpha+ vector and expressed in chinese hamster ovary cells (CHO). […] FACS sorting confirmed that the average fluorescence signal of CHO cell clones expressing ‘cycle 3’ was 46-fold greater than cells expressing the ‘wt’ construct (FIG. 18B).
# [2] = tested on: E. coli XL1-blue cells; test: Minimum inhibitory concentration (MIC) of cefotaxime by plating on cefotaxime plates; assay type: cell-based
# Method: The minimum inhibitory concentration (MIC) of cefotaxime on bacterial cells lacking a plasmid was determined by plating 10 μl of a 10^−2 dilution of an overnight bacterial culture (about 1000 cfu) of E. coli XL1-blue cells (Stratagene, San Diego Calif.) on plates with varying levels of cefotaxime (Sigma, St. Louis Mo.), followed by incubation for 24 hours at 37° C.
# Growth on cefotaxime is sensitive to the density of cells, and therefore similar numbers of cells needed to be plated on each plate (obtained by plating on plain LB plates). Platings of 1000 cells were consistently performed.
# Growth on cefotaxime is dependent on the cell density, requiring that all the MICs be standardized (in our case to about 1,000 cells per plate). […] The 5 largest colonies grown at […] were plated for single colonies twice, and the Sfi1 inserts were analyzed by restriction mapping of the colony PCR products.
# After selection, the plasmid of selected clones was transferred back into wild-type E. coli XL1-blue cells (Stratagene, San Diego Calif.) to ensure that none of the measured drug resistance was due to chromosomal mutations.
Molecule,increase of the fluorescence signal [1],"minimum inhibitory concentration of cefotaxime ([2]; 24 hours at 37° C., about 1,000 cells per plate)","MIC ([2]; cefotaxime, mutants in identical plasmid background pUC182Sfi, no literature source in table)"
CCCC(=O)[O-].[Na+] [sodium butyrate],4-8 fold,–,–
B1,–,approximately 0.02 μg/ml,0.02 µg/mL
